Measurements taken from the supplement of paper PMC10567573.

B1: TPD52L2 (parent)
chain: EAEEEELRAELTKVEEEIVTLRQV
B2: ZBTB22 (parent)
chain: FSSSSQEAFAASAVGSGERRGGGP

Variants of: B1
Assay: protein stability index of a GFP-peptide fusion (GPS, HEK-293T) (PSI 1-6); higher = more stable
Details: c terminus: a fixed tail appended
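Further: lentivirally expressed fusions sorted by FACS into six bins by GFP to DsRed ratio, PSI derived from sequencing read proportions per bin multiplied by bin number.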

Protein stability index, by site and new letter:
L21: G 5.24; S 5.68; D 5.73; H 4.08; E 5.4; Y 3.34; W 3.63; I 4.25; F 4.09; V 5.22; N 5.73; C 4.72; M 4.72; A 4.96; R 5.56; P 5.57; T 5.65; K 5.86; Q 5.13
V24: T 4.39; P 4.65; L 3.78; W 3.89; N 4.72; H 3.92; I 4.13; D 5.2; S 4.52; Q 4.14; R 4.39; F 3.25; A 4.41; M 3.42; K 4.87; E 4.35; Y 3.83; G 3.41; C 3.63
T20: W 2.99; Y 2.77
R22: L 3.06; Q 3.77; S 4.37; P 4.85; D 3.54; G 3.79; E 4.25; V 3.4; N 3.9; W 2.92; M 3.17; T 4.18; A 4.54; C 3.66; F 2.33; I 2.44; Y 2.54; K 3.8; H 3.96
Q23: V 3.11; N 4.21; F 3.19; C 3.9; D 4.43; M 3.65; H 3.6; I 2.98; G 4.54; Y 5.02; E 3.82; R 3.73; W 4.35; T 4.06; S 3.61; A 3.56; K 4.04; P 4.58; L 3.25

Variants of: B2
Assay: as above
Details: c terminus: a fixed tail appended

Protein stability index: each site, then its substitutions
A8: E 4.74; Y 1.88; N 4.21; K 3.79; H 3.86; P 3.94; G 4.44; I 2.75; L 2.25; R 3.96; C 2.47; Q 4.09; S 4.18; D 5.19; V 2.11; F 2.55; M 2.17; T 3.46
A11: I 2.32; D 4.39; T 3.32; S 3.88; F 2.19; E 3.85; N 3.88; G 2.86; W 1.86; H 3.02; C 1.95; R 3.74; V 2.13; M 3.4; K 4.5; L 3.04; Y 3.13; Q 3.44
S4: F 2.88; L 3.65; Y 3.74; A 3.14; R 2.57; H 3.21; Q 3.09; I 3.62; D 3.98; K 2.65; N 3.52; G 1.93; T 3.29; M 3.36; P 4.25; V 3.87; W 1.68; E 4.28
S5: D 4.27; N 3.61; Y 1.95; Q 4.35; W 2.87; H 2.86; A 2.71; I 3.62; L 3.66; R 3.7; T 4.41; K 3.91; M 2.4; V 4.15; F 2.45; P 4.56; E 4.15; C 2.79
Q6: T 2.77; I 2.5; M 2.85; A 2.74; N 3.32; E 4.4; G 4.22; C 3.77; L 2.85; S 2.49; P 3.03; K 1.31; V 2.6; D 4.44; R 3; H 2.81; Y 2.13; F 2.18
V14: K 3.33; Q 3.52; A 3.76; F 2.99; G 3.56; L 3.77; R 3.65; I 2.55; H 3.86; S 3.25; E 3.85; C 3.36; P 3.9; T 3.27; N 3.33; M 3.25; W 1.32; D 4.5
E7: L 1.55; C 1.64; D 3.99; Q 3.67; Y 1.54; V 1.96; S 2.57; K 2.82; A 2.09; G 3.12; P 3.25; R 2.36; T 2.78; N 2.84; H 2.31; M 2.37; I 2.24
A10: Q 4.09; H 3.65; R 3.33; K 3.2; S 3.22; D 5.25; G 3.75; C 2.44; L 3.26; E 4.74; T 3.26; W 2.88; M 3.16; N 3.97; P 3.89; V 2.58; I 2.44; F 2.41; Y 2.27
F1: S 4.85; K 5.04; D 5.7; I 5.3; E 5.43; M 5.13; H 4.75; C 3.94; Y 3.48; Q 5.01; T 5.39; V 5.17; L 5.29; N 5.02; P 5.33; R 5.67; A 4.9; G 5.5; W 5.09
S2: K 4.86; W 3.16; R 4.52; V 2.29; C 2.62; E 5.12; Y 4.54; H 1.77; G 2.2; T 2.53; Q 2.55; L 3.13; D 5.17; A 2.29; M 4.01; I 2.26; N 4.13; F 4.08
A13: W 3.02; Y 3.26; I 3.04; L 3.13; F 2.64; D 3.9; G 3.01; H 3.17; K 3.36; N 2.57; T 2.71; P 3.43; C 2.25; S 3.31; R 3.78; Q 3.28; V 3.87; E 3.93; M 2.79
F9: N 4.71; G 4.56; A 5.51; Y 3.56; L 4.92; P 4.98; Q 5.09; C 4.57; I 4.83; V 5.24; S 5.01; T 5.26; E 5.92; M 4.96; H 4.66; R 4.35; W 1.67; D 5.44; K 5.2
S12: D 3.48; N 3.26; H 2.94; P 3.36; F 1.47; C 2.54; A 3.56; M 2.63; E 3.58; V 2.87; I 2.26; Q 3.71; R 2.61; K 3.68; G 3.61; L 2.36; Y 1.85; T 3.02
S3: I 4.37; N 3.76; P 2.99; L 4.05; V 4.41; F 3.37; R 3.54; Y 3.71; E 4.38; K 4.3; A 3.41; Q 4.07; H 4.13; D 4.36; W 2.86; T 4.04; C 2.97; G 2.35; M 4.2
